# ± gives the uncertainty stated by the source.
# B1: Connector enhancer of kinase suppressor of ras 2, residues 9 to 71; numbered along this chain, Q8WXI2 (parent)
# chain: SKWSPSQVVDWMKGLDDCLQQYIKNFEREKISGDQLLRITHQELEDLGVSRIGHQELILEAVD
# Variants of: B1
# Test: abundance fitness (aPCA) (normalised: wild type 0, dead -1); higher = more abundant; growth selection in yeast, the domain comes from the species named
# Details: Homo sapiens
row,Variant,abundance fitness
1,R51Q,0.071 ± 0.035
2,H41Q,-0.037 ± 0.033
3,H41D,-0.229 ± 0.052
4,H41N,-0.097 ± 0.04
5,K30M,-0.113 ± 0.041
6,K30Y,-0.391 ± 0.053
7,K30E,-0.105 ± 0.038
8,K30N,-0.075 ± 0.057
9,K30H,-0.04 ± 0.043
10,E27H,-0.376 ± 0.054
11,E27W,-0.311 ± 0.034
12,E27R,-0.173 ± 0.023
13,E27Y,-0.316 ± 0.079
14,S4Q,-0.676 ± 0.056
15,S4F,-0.656 ± 0.049
16,S4K,-0.141 ± 0.043
17,S4H,-0.385 ± 0.067
18,S4W,-0.958 ± 0.075
19,S4C,-0.183 ± 0.047
20,S4N,0.001 ± 0.042
21,S4D,-0.027 ± 0.031
22,L37F,-0.239 ± 0.052
23,L37H,-0.158 ± 0.071
24,L37R,-0.145 ± 0.023

row,Variant,abundance fitness
1,L37V,-0.078 ± 0.025
2,L37G,-0.168 ± 0.028
3,L37N,-0.154 ± 0.047
4,L57D,-0.677 ± 0.064
5,L57Y,-0.53 ± 0.051
6,L57Q,-0.213 ± 0.043
7,L57N,-0.533 ± 0.049
8,L57E,-0.446 ± 0.034
9,L57T,-0.448 ± 0.032
10,L57M,0.035 ± 0.04
11,L57C,-0.394 ± 0.051
12,V9G,-0.128 ± 0.031
13,V9P,-0.888 ± 0.073
14,V9I,-0.035 ± 0.03
15,V9Y,-0.757 ± 0.076
16,M12G,-0.757 ± 0.037
17,M12D,-0.706 ± 0.05
18,M12N,-1 ± 0.087
19,M12T,-0.849 ± 0.072
20,M12S,-0.8 ± 0.051
21,R28G,-0.262 ± 0.031
22,R28S,-0.056 ± 0.026
23,R28K,-0.063 ± 0.033
24,D46R,0.027 ± 0.023

row,Variant,abundance fitness
1,D46G,-0.075 ± 0.026
2,D46I,-0.178 ± 0.044
3,D46F,-0.097 ± 0.035
4,D46T,-0.041 ± 0.031
5,D46P,-0.813 ± 0.076
6,D46A,-0.054 ± 0.031
7,D46H,0.008 ± 0.039
8,E43W,-0.498 ± 0.04
9,E43T,-0.151 ± 0.026
10,E43S,-0.137 ± 0.026
11,E43I,-0.46 ± 0.045
12,E43R,0.006 ± 0.023
13,L44I,-0.982 ± 0.23
14,L44T,-0.781 ± 0.05
15,L44G,-0.804 ± 0.047
16,L44P,-0.821 ± 0.073
17,L44A,-0.814 ± 0.046
18,L44M,-0.399 ± 0.05
19,L44R,-0.753 ± 0.036
20,S32W,-0.322 ± 0.028
21,S32H,-0.361 ± 0.082
22,S32Y,-0.264 ± 0.056
23,Q55A,-0.296 ± 0.03
24,Q55P,-0.654 ± 0.042

row,Variant,abundance fitness
1,Q55H,-0.861 ± 0.052
2,Q55T,-0.598 ± 0.036
3,Q55L,-0.948 ± 0.041
4,G33L,-0.423 ± 0.034
5,G33W,-0.216 ± 0.045
6,G33R,-0.631 ± 0.028
7,G33Y,-0.257 ± 0.039
8,G33M,-0.236 ± 0.046
9,G33V,-0.417 ± 0.041
10,E45I,-0.076 ± 0.035
11,E45N,-0.015 ± 0.039
12,E45R,-0.017 ± 0.021
13,E45C,-0.018 ± 0.031
14,E45T,-0.034 ± 0.03
15,E45V,-0.118 ± 0.028
16,E45G,-0.12 ± 0.029
17,E45W,-0.193 ± 0.027
18,E45D,-0.167 ± 0.056
19,Q20D,-0.259 ± 0.033
20,Q20G,-0.152 ± 0.023
21,Q20K,-0.148 ± 0.025
22,Q20M,-0.17 ± 0.029
23,Q20N,-0.117 ± 0.043
24,Q20L,-0.121 ± 0.023

row,Variant,abundance fitness
1,L19D,-0.608 ± 0.042
2,L19R,-0.763 ± 0.036
3,L19A,-0.652 ± 0.033
4,L19Y,-0.816 ± 0.085
5,L19T,-0.508 ± 0.036
6,L19S,-0.642 ± 0.037
7,D34K,-0.056 ± 0.057
8,D34P,-0.105 ± 0.031
9,D34L,-0.128 ± 0.025
10,D34E,0.055 ± 0.037
11,D34G,-0.109 ± 0.03
12,D34W,-0.142 ± 0.038
13,G53R,0.046 ± 0.027
14,G53W,-0.151 ± 0.03
15,G53A,0.037 ± 0.033
16,G53D,0.086 ± 0.042
17,G53Q,0.061 ± 0.034
18,G53M,-0.009 ± 0.049
19,G53E,0.085 ± 0.039
20,V49C,-0.374 ± 0.033
21,V49H,-0.926 ± 0.079
22,V49L,-0.621 ± 0.028
23,V49N,-1.1 ± 0.13
24,V49I,-0.088 ± 0.049

row,Variant,abundance fitness
1,Q21F,-0.539 ± 0.041
2,Q21M,-0.102 ± 0.032
3,Q21H,-0.257 ± 0.04
4,Q21N,-0.4 ± 0.041
5,Q21P,0.038 ± 0.035
6,S50M,-0.09 ± 0.1
7,S50C,-0.068 ± 0.067
8,S50L,-0.072 ± 0.033
9,S50D,-0.172 ± 0.1
10,S50G,-0.258 ± 0.09
11,W3Y,-0.6 ± 0.084
12,W3L,-0.236 ± 0.048
13,W3H,-0.772 ± 0.13
14,I52V,0.002 ± 0.038
15,I52R,0.065 ± 0.024
16,I52F,-0.071 ± 0.052
17,I52A,-0.011 ± 0.027
18,I52W,-0.174 ± 0.039
19,C18V,-0.118 ± 0.024
20,C18Q,-0.124 ± 0.039
21,C18W,-0.991 ± 0.069
22,I58N,-0.851 ± 0.12
23,I58T,-0.688 ± 0.11
24,I58G,-0.945 ± 0.24

row,Variant,abundance fitness
1,I58H,-0.268 ± 0.29
2,I58P,-0.671 ± 0.085
3,I58Y,-1.35 ± 0.46
4,I58L,-0.096 ± 0.039
5,I58K,-0.727 ± 0.12
6,I58E,-0.584 ± 0.078
7,W11M,-0.943 ± 0.058
8,W11Y,-0.425 ± 0.047
9,W11R,-0.716 ± 0.024
10,W11P,-0.854 ± 0.066
11,W11N,-0.674 ± 0.086
12,W11K,-0.564 ± 0.046
13,D10G,-0.122 ± 0.035
14,D10S,-0.127 ± 0.034
15,D10P,-0.929 ± 0.056
16,D10F,-0.34 ± 0.041
17,D17V,-0.359 ± 0.028
18,D17K,-0.186 ± 0.041
19,D17R,-0.184 ± 0.025
20,D17E,-0.018 ± 0.037
21,D17F,-0.181 ± 0.076
22,D17Q,-0.091 ± 0.038
23,F26W,-0.785 ± 0.052
